Where a chain is given by its changes, count along the chain named. Each block holds one binder with its values, some of them ahead of it.
What was measured:
[1] = target: T1, AnkG 38–855 (AnkG MBD-AI-c protein; MBD + partial AI-c) (rat, UniProt O70511-1 38-855); assay: ITC; two sites
T1 chain: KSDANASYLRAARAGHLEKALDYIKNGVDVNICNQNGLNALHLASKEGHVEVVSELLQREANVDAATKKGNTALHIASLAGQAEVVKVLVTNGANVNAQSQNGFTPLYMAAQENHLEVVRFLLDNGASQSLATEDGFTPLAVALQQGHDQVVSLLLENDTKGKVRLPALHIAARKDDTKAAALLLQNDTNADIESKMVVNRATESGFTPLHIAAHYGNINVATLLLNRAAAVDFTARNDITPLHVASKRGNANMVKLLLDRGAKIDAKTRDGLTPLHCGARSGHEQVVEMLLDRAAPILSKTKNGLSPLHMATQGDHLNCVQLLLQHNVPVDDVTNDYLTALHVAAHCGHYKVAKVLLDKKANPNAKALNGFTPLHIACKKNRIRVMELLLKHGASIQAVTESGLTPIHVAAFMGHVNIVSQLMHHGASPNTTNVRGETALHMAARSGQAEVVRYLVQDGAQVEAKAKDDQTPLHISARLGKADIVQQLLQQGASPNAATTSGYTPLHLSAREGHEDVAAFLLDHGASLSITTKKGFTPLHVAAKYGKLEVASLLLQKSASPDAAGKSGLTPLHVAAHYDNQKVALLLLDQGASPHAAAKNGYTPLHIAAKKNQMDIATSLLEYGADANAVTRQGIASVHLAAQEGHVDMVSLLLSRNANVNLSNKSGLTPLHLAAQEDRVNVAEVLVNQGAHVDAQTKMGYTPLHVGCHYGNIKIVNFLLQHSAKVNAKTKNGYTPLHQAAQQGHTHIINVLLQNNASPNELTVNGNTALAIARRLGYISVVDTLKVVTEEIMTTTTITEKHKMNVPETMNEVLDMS

[2] = target: T2, AnkG_MBD 'site-2' mutant (Ile277Gln, Leu310Gln) (rat, UniProt O70511-1 38-855, Ile277Gln | Leu310Gln); assay: ITC
T2 sequence: T1 chain with I240Q, L273Q

[3] = target: T3, AnkG_MBD 'site-1' mutant (Phe141Gln, Phe164Gln) (rat); assay: ITC
T3 chain: T1 chain with F104Q, F137Q

[4] = target: T1, AnkG 38–855 (AnkG MBD-AI-c protein; MBD …); assay: ITC
[5] = target: T4, AnkB 28–847 (MBD + partial AI-c) (human, UniProt Q01484-2 28-847); assay: ITC
T4 chain: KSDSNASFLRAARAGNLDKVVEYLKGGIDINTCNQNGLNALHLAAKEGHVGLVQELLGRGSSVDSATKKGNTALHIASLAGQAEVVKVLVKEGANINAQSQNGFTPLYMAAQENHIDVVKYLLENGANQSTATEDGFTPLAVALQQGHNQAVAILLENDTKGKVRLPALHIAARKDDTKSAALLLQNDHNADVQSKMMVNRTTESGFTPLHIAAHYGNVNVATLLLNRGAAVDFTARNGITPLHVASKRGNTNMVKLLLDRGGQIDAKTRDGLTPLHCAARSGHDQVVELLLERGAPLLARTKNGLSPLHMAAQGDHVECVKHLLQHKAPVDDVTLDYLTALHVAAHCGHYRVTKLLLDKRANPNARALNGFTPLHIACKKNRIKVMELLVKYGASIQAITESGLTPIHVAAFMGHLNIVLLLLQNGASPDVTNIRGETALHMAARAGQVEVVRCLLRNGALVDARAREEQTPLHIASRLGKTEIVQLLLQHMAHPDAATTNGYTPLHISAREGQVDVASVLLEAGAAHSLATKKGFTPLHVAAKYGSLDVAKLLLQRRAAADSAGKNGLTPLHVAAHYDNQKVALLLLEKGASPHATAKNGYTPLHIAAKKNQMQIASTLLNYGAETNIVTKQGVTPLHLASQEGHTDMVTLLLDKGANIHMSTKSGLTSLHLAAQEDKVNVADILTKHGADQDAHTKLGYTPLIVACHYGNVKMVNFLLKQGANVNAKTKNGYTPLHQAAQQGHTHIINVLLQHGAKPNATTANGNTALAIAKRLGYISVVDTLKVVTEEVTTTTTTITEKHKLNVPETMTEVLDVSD

[6] = target: T5, AnkB MBD 'site-2' mutant (Ile267Gln, Leu300Gln) (human, UniProt Q01484-2 28-847, Ile267Gln | Leu300Gln); assay: ITC
T5 sequence: T4 chain with I240Q, L273Q

Kd [1]: ~3 µM
B1: AnkG long linker (aa 837–920; AI-c + AI-b) (domain or fragment)
chain: TEKHKMNVPETMNEVLDMSDDEVGKASAPEKLSDGEYISDGEEGEDAITGDTDKYLGPQDLKELGDDSLPAEGYVGFSLGARSA

Kd [2]: 3.9 µM
Kd [3]: 2.6 µM
Kd [4]: 1.6 µM
B2: AnkG linker ΔAI-c (aa 861–920) (domain or fragment)
chain: KASAPEKLSDGEYISDGEEGEDAITGDTDKYLGPQDLKELGDDSLPAEGYVGFSLGARSA

Kd [5]: 3.7 µM
Kd [6]: 8.5 µM
Binder: EDLKELGDDSLPSSQFLDGMNYLRYSLEGGRS (domain or fragment) [AnkB_AI-b (aa 865–896)]
